Experimental data: patent publication US20220074941A1, “HSP90 COMBINATION THERAPY” (Sloan-Kettering Institute for Cancer Research, priority 2011, published 2022)

Columns and labels:
[1] = test system: Hsp90 complexes in K562 cell extract; test: Nano-LC-MS/MS of PU-beads pull-downs; type: binding; details: protein identified in PU-beads pull-down of K562 cell extract, QSTAR-Elite QTof MS
In short: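 Lysates pre-cleared overnight at 4 °C with control beads, then pulled down with PU-beads or control beads; eluted proteins (2% SDS boil) gel-separated and analysed by nano LC-MS/MS on a QTof. Mascot identification (p<0.05), spectral counts and sequence coverage evaluated in Scaffold.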

[2] = test system: Hsp90 complexes in Mia-PaCa-2 cell extract; test: Nano-LC-MS/MS of PU-beads pull-downs; type: binding, human; details: protein identified in PU-beads pull-down of Mia-PaCa-2 cell extract; QSTAR-Elite QTof MS
In short: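 Lysates pre-cleared overnight at 4 °C with control beads underwent PU-bead pull-down; bound proteins were SDS-eluted, gel-separated, digested and analyzed by nano-LC-MS/MS on a QTof. Identifications used significance p<0.05, 0.4 Da tolerances and one missed cleavage; unique peptide (spectral) counts and sequence coverage were reported.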

Row | Molecule | Number of Assigned Spectra, K562 Prep 1 [1] | Number of Assigned Spectra, K562 Prep 2 [1] | Number of Assigned Spectra, Mia-Paca 2 [2]
1 | PSD4 (protein, UniProt Q8NDX1 1-1056, looked up) PH and SEC7 domain-containing …: MMGDYRLPDHPQPMEILNLYLGDSLEPHPGECPRETCSHEDPPEPFEEQTWATDPPEPTRQNVPPWGSGVELTHLGSWVHQDGLEPCQEQTRATDPPESTRQDAPPWGSGVELTHLGSPSAQREHRQNTASPGSPVNSHLPGSPKQNRSTSTQVVFWAGILQAQMCVLDLEEELEKTEGLKAGLKCCLPTPPVDLPGDTGLHSSPPENEDSGEDSSEPEGEGQAWLREGTPDSSPQWGAEEESMFFSNPLFLASPCSENSASGECFSWGASDSHAGVRTGPESPATLEPPLPEDTVLWELESEPDLGDGAAISGHCTPPFPVPIYKPHSICWASVAAAEGAPAAPPGHGESEGDRLGPAPSAAPCVDEALTWESGCVGSDLGPAAHPVQPWASLSPEGWQRGGPFWPQVTLNSQDRDEREGGHPQESLPCTLAPCPWRSPASSPEPSSPESESRGPGPRPSPASSQEGSPQLQHHSSGILPKWTLDASQSSLLETDGEQPSSLKKKEAGEAPKPGEEVKSEGTARPAETGDVQPDIHLTSAEHENLRTPMNSSWLPGSPMPQAQSPEEGQRPPAGDKLANGVRNNKVAWNLASRLYRLEGFRKSEVAAYLQKNNDFSRAVAEEYLSFFQFGGQSLDRALRSFLQALVLSGETQERERILYQFSRRFHHCNPGIFPSVDSVHTLTCAIMLLNTDLHGQNIGKSMSCQEFITNLNGLRDGGNFPKELLKALYWSIRSEKLEWAVDEEDTARPEKAQPSLPAGKMSKPFLQLAQDPTVPTYKQGILARKMHQDADGKKTPWGKRGWKMFHTLLRGMVLYFLKQGEDHCLEGESLVGQMVDEPVGVHHSLATPATHYTKKPHVFQLRTADWRLYLFQAPTAKEMSSWIARINLAAATHSAPPFPAAVGSQRRFVRPILPVGPAQSSLEEQHRSHENCLDAAADDLLDLQRNLPERRGRGRELEEHRLRKEYLEYEKTRYETYVQLLVARLHCPSDALDLWEEQLGREAGGTREPKLSLKKSHSSPSLHQDEAPTTAKVKRNISERRTYRKIIPKRNRNQL | 2 | 0 | 0
2 | ZBED1 (protein, UniProt O96006 1-694, looked up) E3 SUMO-protein ligase ZBED1: MENKSLESSQTDLKLVAHPRAKSKVWKYFGFDTNAEGCILQWKKIYCRICMAQIAYSGNTSNLSYHLEKNHPEEFCEFVKSNTEQMREAFATAFSKLKPESSQQPGQDALAVKAGHGYDSKKQQELTAAVLGLICEGLYPASIVDEPTFKVLLKTADPRYELPSRKYISTKAIPEKYGAVREVILKELAEATWCGISTDMWRSENQNRAYVTLAAHFLGLGAPNCLSMGSRCLKTFEVPEENTAETITRVLYEVFIEWGISAKVFGATTNYGKDIVKACSLLDVAVHMPCLGHTFNAGIQQAFQLPKLGALLSRCRKLVEYFQQSAVAMYMLYEKQKQQNVAHCMLVSNRVSWWGSTLAMLQRLKEQQFVIAGVLVEDSNNHHLMLEASEWATIEGLVELLQPFKQVAEMLSASRYPTISMVKPLLHMLLNTTLNIKETDSKELSMAKEVIAKELSKTYQETPEIDMFLNVATFLDPRYKRLPFLSAFERQQVENRVVEEAKGLLDKVKDGGYRPAEDKIFPVPEEPPVKKLMRTSTPPPASVINNMLAEIFCQTGGVEDQEEWHAQVVEELSNFKSQKVLGLNEDPLKWWSDRLALFPLLPKVLQKYWCVTATRVAPERLFGSAANVVSAKRNRLAPAHVDEQVFLYENARSGAEAEPEDQDEGEWGLDQEQVFSLGDGVSGGFFGIRDSSFL | 2 | 0 | 0
3 | MLF2 (protein, UniProt Q15773 1-248, looked up) Myeloid leukemia factor 2: MFRFMRDVEPEDPMFLMDPFAIHRQHMSRMLSGGFGYSPFLSITDGNMPGTRPASRRMQQAGAVSPFGMLGMSGGFMDMFGMMNDMIGNMEHMTAGGNCQTFSSSTVISYSNTGDGAPKVYQETSEMRSAPGGIRETRRTVRDSDSGLEQMSIGHHIRDRAHILQRSRNHRTGDQEERQDYINLDESEAAAFDDEWRRETSRFRQQRPLEFRRLESSGAGGRRAEGPPRLAIQGPEDSPSRQSRRYDW | 2 | 0 | 1
4 | CT45A5 (protein, UniProt P0DMU8 1-189, looked up) Cancer/testis antigen family …: MTDKTEKVAVDPETVFKRPRECDSPSYQKRQRMALLARKQGAGDSLIAGSAMSKEKKLMTGHAIPPSQLDSQIDDFTGFSKDGMMQKPGSNAPVGGNVTSSFSGDDLECRETASSPKSQREINADIKRKLVKELRCVGQKYEKIFEMLEGVQGPTAVRKRFFESIIKEAARCMRRDFVKHLKKKLKRMI | 2 | 0 | 0
5 | ASCC2 (protein, UniProt Q9H1I8 1-757, looked up) Activating signal …: MPALPLDQLQITHKDPKTGKLRTSPALHPEQKADRYFVLYKPPPKDNIPALVEEYLERATFVANDLDWLLALPHDKFWCQVIFDETLQKCLDSYLRYVPRKFDEGVASAPEVVDMQKRLHRSVFLTFLRMSTHKESKDHFISPSAFGEILYNNFLFDIPKILDLCVLFGKGNSPLLQKMIGNIFTQQPSYYSDLDETLPTILQVFSNILQHCGLQGDGANTTPQKLEERGRLTPSDMPLLELKDIVLYLCDTCTTLWAFLDIFPLACQTFQKHDFCYRLASFYEAAIPEMESAIKKRRLEDSKLLGDLWQRLSHSRKKLMEIFHIILNQICLLPILESSCDNIQGFIEEFLQIFSSLLQEKRFLRDYDALFPVAEDISLLQQASSVLDETRTAYILQAVESAWEGVDRRKATDAKDPSVIEEPNGEPNGVTVTAEAVSQASSHPENSEEEECMGAAAAVGPAMCGVELDSLISQVKDLLPDLGEGFILACLEYYHYDPEQVINNILEERLAPTLSQLDRNLDREMKPDPTPLLTSRHNVFQNDEFDVFSRDSVDLSRVHKGKSTRKEENTRSLLNDKRAVAAQRQRYEQYSVVVEEVPLQPGESLPYHSVYYEDEYDDTYDGNQVGANDADSDDELISRRPFTIPQVLRTKVPREGQEEDDDDEEDDADEEAPKPDHFVQDPAVLREKAEARRMAFLAKKGYRHDSSTAVAGSPRGHGQSRETTQERRKKEANKATRANHNRRTMADRKRSKGMIPS | 0 | 0 | 1
6 | WASF2 (protein, UniProt Q9Y6W5 1-498, looked up) Actin-binding protein WASF2: MPLVTRNIEPRHLCRQTLPSVRSELECVTNITLANVIRQLGSLSKYAEDIFGELFTQANTFASRVSSLAERVDRLQVKVTQLDPKEEEVSLQGINTRKAFRSSTIQDQKLFDRNSLPVPVLETYNTCDTPPPLNNLTPYRDDGKEALKFYTDPSYFFDLWKEKMLQDTKDIMKEKRKHRKEKKDNPNRGNVNPRKIKTRKEEWEKMKMGQEFVESKEKLGTSGYPPTLVYQNGSIGCVENVDASSYPPPPQSDSASSPSPSFSEDNLPPPPAEFSYPVDNQRGSGLAGPKRSSVVSPSHPPPAPPLGSPPGPKPGFAPPPAPPPPPPPMIGIPPPPPPVGFGSPGTPPPPSPPSFPPHPDFAAPPPPPPPPAADYPTLPPPPLSQPTGGAPPPPPPPPPPGPPPPPFTGADGQPAIPPPLSDTTKPKSSLPAVSDARSDLLSAIRQGFQLRRVEEQREQEKRDVVGNDVATILSRRIAVEYSDSEDDSSEFDEDDWSD | 2 | 0 | 0
7 | MOBKL3 (protein, UniProt Q96BX8 1-217, looked up) MOB kinase activator 3A: MSNPFLKQVFNKDKTFRPKRKFEPGTQRFELHKKAQASLNAGLDLRLAVQLPPGEDLNDWVAVHVVDFFNRVNLIYGTISDGCTEQSCPVMSGGPKYEYRWQDEHKFRKPTALSAPRYMDLLMDWIEAQINNEDLFPTNVGTPFPKNFLQTVRKILSRLFRVFVHVYIHHFDRIAQMGSEAHVNTCYKHFYYFVKEFGLIDTKELEPLKEMTARMCH | 0 | 0 | 1
